Assay results as given in patent US8846003 (PURDUE RESEARCH FOUNDATION, dated 2014).
*: point of attachment. Dansyl = CN(C)c1cccc2c(S(=O)(=O)*)cccc12

Columns and labels:
collagen [1] = biological target: T1, collagen; experiment: fluorescence plate binding assay; collagen coated on 96-well high-binding plate, Z-SILY 100 µM to 10 nM, ex/em 335/490 nm; from equilibrium binding
T1 construct: also called collagen surface; collagen-treated well
Description: (§1) Binding assays were done in a 96-well high-binding plate, black with a clear bottom (Costar). Collagen was compared to untreated wells and BSA coated wells. Collagen and BSA were immobilized at 37° C. for 1 hr by incubating 90 µL/well at concentrations of 2 mg/mL in 10 mM HCl and 1×PBS, respectively. Each well was washed 3× with 1×PBS after incubating. Z-SILY was dissolved in 1×PBS at concentrations from 100 µM to 10 nM in 10-fold dilutions. Wells were incubated for 30 min at 37° C. and rinsed 3× with PBS and then filled with 90 µL of 1×PBS. Fluorescence readings were taken on an M5 Spectramax Spectrophotometer (Molecular Devices) at excitation/emission wavelengths of 335 nm/490 nm respectively.

collagen [2] = biological target: T1, collagen; experiment: microplate fluorescence binding assay on collagen-coated wells, binding curve fitted to the data of FIGURE 4
Description: Figure 4: FIG. 4. Binding of dansyl-modified peptide SILY to collagen measured in 96-well high-binding plate (black with a clear bottom (Costar)). PBS, buffer only; BSA, BSA-treated well; Collagen, collagen-treated well. Fluorescence readings were taken on an M5 Spectramax Spectrophotometer (Molecular Devices) at excitation/emission wavelengths of 335 nm/490 nm, respectively. Figure 5: FIG. 5. Collagen-dansyl-modified peptide SILY binding curve derived from fluorescence data described in FIG. 4. Figure 6: FIG. 6. A schematic description of the reagent, 3-(2-pyridyldithio)propionyl hydrazide (PDPH), and the chemistry of the two-step conjugation of a cysteine-containing peptide with an oxidized glycosylaminoglycoside showing the release of 2-pyridylthiol in the final step.
as §1, with “Wells were incubated for 30 min at 37° C. and rinsed 3× with PBS and then filled with 90 µL of 1×PBS.” left out

Kd (collagen [1]): 860 nM | EC50 (read off the curve) (collagen [2]): ~900 nM
B1: Dansyl-GRRANAALKAGELYKSILYGC (peptide)
peptide: Dansyl-GRRANAALKAGELYKSILYGC-NH2
notes: Fluorescently labelled version of SILY; also called Z-SILY; ZSILY
